{"source": "patent US20190309079A1", "about": "(Regeneron, published 2019)", "binders": {"B1": {"name": "H4H16679P2 (antibody, V domains shown)", "VH": "QVQLVESGGGVVQPGRSLRLSCTASGFTFSSYAMYWVRQAPGKGLEWVSVIYYDGSYKYYADSVKGRFTISRDNSKNTLYLQMDSLRAEDTAVYYCASYNWNYWYFDFWGRGTLVTVSS", "VL": "not shown"}}, "target": "T1, wild-type LEPR on HEK293 reporter cells (UniProt P48357 22-1165, limits assumed)", "T1 sequence (looked up)": "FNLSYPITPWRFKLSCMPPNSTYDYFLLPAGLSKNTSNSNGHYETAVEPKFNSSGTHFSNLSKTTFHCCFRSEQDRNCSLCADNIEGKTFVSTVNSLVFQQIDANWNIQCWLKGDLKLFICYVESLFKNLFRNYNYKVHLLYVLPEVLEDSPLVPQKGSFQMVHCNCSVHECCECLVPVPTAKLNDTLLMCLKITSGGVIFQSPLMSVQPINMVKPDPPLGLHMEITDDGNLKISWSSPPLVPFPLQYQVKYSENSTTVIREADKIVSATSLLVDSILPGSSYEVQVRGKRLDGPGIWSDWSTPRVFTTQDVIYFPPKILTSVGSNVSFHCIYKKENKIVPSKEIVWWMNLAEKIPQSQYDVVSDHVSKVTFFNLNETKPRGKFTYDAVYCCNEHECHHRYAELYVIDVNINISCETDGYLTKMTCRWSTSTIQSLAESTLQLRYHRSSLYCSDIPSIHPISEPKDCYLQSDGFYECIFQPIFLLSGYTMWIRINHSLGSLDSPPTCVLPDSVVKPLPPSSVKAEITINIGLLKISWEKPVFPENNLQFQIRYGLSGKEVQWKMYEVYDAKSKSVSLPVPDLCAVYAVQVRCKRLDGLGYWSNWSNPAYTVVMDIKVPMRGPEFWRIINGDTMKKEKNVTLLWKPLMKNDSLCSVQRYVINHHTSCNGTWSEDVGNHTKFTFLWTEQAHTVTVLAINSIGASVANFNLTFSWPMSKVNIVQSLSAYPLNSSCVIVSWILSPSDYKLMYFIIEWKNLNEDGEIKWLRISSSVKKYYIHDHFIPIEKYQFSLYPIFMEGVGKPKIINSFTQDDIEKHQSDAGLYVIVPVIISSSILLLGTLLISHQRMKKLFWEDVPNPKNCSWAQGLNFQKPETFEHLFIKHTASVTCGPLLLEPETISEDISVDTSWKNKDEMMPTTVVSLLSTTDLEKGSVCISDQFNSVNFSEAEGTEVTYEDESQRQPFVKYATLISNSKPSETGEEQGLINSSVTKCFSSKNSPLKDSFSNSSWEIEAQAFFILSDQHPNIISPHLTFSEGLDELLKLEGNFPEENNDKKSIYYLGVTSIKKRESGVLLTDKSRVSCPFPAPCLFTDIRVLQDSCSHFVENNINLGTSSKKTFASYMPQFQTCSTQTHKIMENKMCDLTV", "assay": "cell-based or functional assay", "data": [{"binder": "B1", "values": [{"measurement": "EC50 (read off the curve), pSTAT3 Y705/STAT3 densitometry", "value": "~3e-10", "unit": "M"}]}]}
